These results are taken from patent US20200055939A1 (Genentech, published 2020).

Assay [1] deals with MICA*004 on HCC1534 cells (human, UniProt Q29983 24-383). Nature of the assay: cell-based or functional assay.
For assay [2], the target named is MICB*005 on HCC1534 cells (human). Nature of the assay: cell-based or functional assay.
The target of assay [3] is T1, MICA*008 on MEL-JUSO cells (human, UniProt Q29983 24-317).
T1 chain: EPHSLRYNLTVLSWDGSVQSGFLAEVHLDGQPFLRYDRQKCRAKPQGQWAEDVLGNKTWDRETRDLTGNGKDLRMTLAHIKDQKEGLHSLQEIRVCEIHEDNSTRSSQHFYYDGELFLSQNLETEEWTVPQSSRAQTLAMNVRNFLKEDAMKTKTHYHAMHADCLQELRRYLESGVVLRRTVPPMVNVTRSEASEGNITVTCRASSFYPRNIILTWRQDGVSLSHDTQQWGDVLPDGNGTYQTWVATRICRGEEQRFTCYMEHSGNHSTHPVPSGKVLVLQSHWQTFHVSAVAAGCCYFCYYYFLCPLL
Put plainly: cell-based or functional assay.

The target of the next assay is T2, huMICA*004 alpha 3-his (human).
T2 construct: whole construct entry: GS, alpha 3 domain, GNS, His8; also called MICA004.His; MICA*004 alpha3 construct
T2 chain: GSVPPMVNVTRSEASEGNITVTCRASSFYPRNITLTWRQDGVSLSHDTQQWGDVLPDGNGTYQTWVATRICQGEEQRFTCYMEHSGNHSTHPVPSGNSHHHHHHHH
Put plainly: SPR, Biacore 8K, antibody on Protein A chip. For orientation: Surface plasmon resonance follows binding to a sensor surface in real time, without labels.

A further assay addresses T3, huMICB*005 alpha 3-his (human).
T3 construct: whole construct entry: GS, alpha 3 domain, GNS, His8; also called MICB005.His; MICB*005 alpha3 construct
T3 chain: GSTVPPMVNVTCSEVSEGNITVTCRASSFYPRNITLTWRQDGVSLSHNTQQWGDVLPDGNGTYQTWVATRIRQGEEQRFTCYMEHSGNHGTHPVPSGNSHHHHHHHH
Put plainly: SPR, Biacore 8K, antibody on Protein A chip.

Another assay concerns the target T4, huMICA*002 alpha 3-his (human).
T4 construct: whole construct entry: GS, alpha 3 domain, GNS, His8; also called MICA002.His; MICA*002 alpha3 construct
T4 chain: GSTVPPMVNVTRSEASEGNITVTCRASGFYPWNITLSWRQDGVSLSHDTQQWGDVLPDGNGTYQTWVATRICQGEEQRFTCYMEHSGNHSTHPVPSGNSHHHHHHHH
Put plainly: SPR, Biacore 8K, antibody on Protein A chip.

Another assay has as its target T5, huMICA*008 alpha 3-his (human).
T5 construct: whole construct entry: GS, alpha 3 domain (Thr204-Ser297), GNS, His8; also the construct of the FPOP experiment; also called MICA008.His; MICA*008 alpha3 construct
T5 chain: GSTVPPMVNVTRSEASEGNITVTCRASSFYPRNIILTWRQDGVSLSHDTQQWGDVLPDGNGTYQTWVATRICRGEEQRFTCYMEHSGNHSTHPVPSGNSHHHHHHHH
Put plainly: SPR, Biacore 8K, antibody on Protein A chip.

Experimental for huMICA*002 alpha 3-his: (§1) A Protein A sensorchip (GE Healthcare) was used following manufacturer provided protocols to capture humanized anti-MICA/B antibodies. The MICA/B alleles were passed over. Antibody binding was measured to human MICA 002, 004, 008 and MICB 005 alpha 3 domains (His tagged, in-house). Sensograms for binding of MICA/B were recorded using an injection time of 2 minutes with a flow rate of 30 ml/min, at a temperature of 25° C., and with a running buffer of 10 mM HEPES, pH 7.4, 150 mM NaCl, 3mM EDTA, and 0.005% Tween 20. After injection, disassociation of the alpha 3 domain from the antibody was monitored for 10 minutes in running buffer. The surface was regenerated between binding cycles with a 60 ul injection of 10 mM Glycine HCl pH 1.5. […] The data was analyzed using a 1:1 binding model. Sensograms of MICA alleles binding to captured anti-MICA antibody were used to calculate the dissociation constant (Kd).
Experimental for huMICA*004 alpha 3-his: as §1
Experimental for huMICA*008 alpha 3-his: as §1
Experimental for huMICB*005 alpha 3-his: as §1

B1: 1D5v11 (antibody, IgG1, V domains shown)
VH: EIQLVQSGAEVKKPGASVKVSCKASGYAFTSQNIYWVRQAPGQGLEWIGYIEPYNVVPMYNPKFKGRATLTVDKSTSTAYLELSSLRSEDTAVYYCARSGSSNFDYWGQGTLVTVSS
VL: DIQLTQSPSSLSASVGDRVTITCSASSSISSHYLHWYQQKPGKSPKLLIYRTSNLASGVPSRFSGSGSGTDYTLTISSLQPEDFATYYCQQGSSLPLTFGQGTKVEIK
notes: humanized variant of 1D5
As to B1, the figures for the “% Inhibition” value in assay [1], in assay [2] and in assay [3] were 52%, 36% and 56%, respectively. Further, the Kd with huMICA*004 alpha 3-his is 0.83 nM; with huMICB*005 alpha 3-his, 1.38 nM; with huMICA*002 alpha 3-his it was 1.09 nM; with huMICA*008 alpha 3-his it was 0.78 nM.

B2: 1D5v9 (antibody, IgG1, V domains shown)
VH: EIQLVQSGAEVKKPGASVKVSCKASGYAFTSQNIYWVRQAPGQGLEWIGYIEPYNVVPMYNPKFKGRATLTVDKSTSTAYMELRSLRSDDTAVYYCARSGSSNFDYWGQGTLVTVSS
VL: DIQLTQSPSSLSASVGDRVTITCSASSSISSHYLHWYQQKPGKSPKLLIYRTSNLASGVPSRFSGSGSGTDYTLTISSLQPEDFATYYCQQGSSLPLTFGQGTKVEIK
notes: humanized variant of 1D5
Take B2: the “% Inhibition” value in assay [1] is 53%; in assay [2], 41%; in assay [3] it was 49%. The Kd amounted to 0.95 nM with huMICA*004 alpha 3-his, 1.51 nM with huMICB*005 alpha 3-his, 1.31 nM with huMICA*002 alpha 3-his and 0.87 nM with huMICA*008 alpha 3-his.

B3: 1D5v13 (antibody, IgG1, V domains shown)
VH: EIQLVQSGAEVKKPGASVKVSCKASGYAFTSQNIYWVRQAPGQGLEWIGYIEPYNVVPMYNPKFKGRATLTVDKSTSTAYMELRSLRSDDTAVYYCARSGSSNFDYWGQGTLVTVSS
VL: DIQMTQSPSSLSASVGDRVTITCSASSSISSHYLHWYQQKPGKAPKLLIYRTSNLASGVPSRFSGSGSGTDFTLTISSLQPEDFATYYCQQGSSLPLTFGQGTKVEIK
notes: humanized variant of 1D5
For the molecule B3, the entries for the “% Inhibition” value in assay [1], in assay [2] and in assay [3] were 49%, 43% and 51%, respectively. For the same molecule, the Kd is 0.91 nM with huMICA*004 alpha 3-his, 1.48 nM in the assay with huMICB*005 alpha 3-his, 1.2 nM with huMICA*002 alpha 3-his and 0.85 nM with huMICA*008 alpha 3-his.

B4: 1D5v16 (antibody, IgG1, V domains shown)
VH: EVQLVQSGAEVKKPGASVKVSCKASGYAFTSQNIYWVRQAPGQGLEWIGYIEPYNVVPMYNPKFKGRVTITRDTSTSTAYLELSSLRSEDTAVYYCARSGSSNFDYWGQGTLVTVSS
VL: DIQMTQSPSSLSASVGDRVTITCSASSSISSHYLHWYQQKPGKAPKLLIYRTSNLASGVPSRFSGSGSGTDFTLTISSLQPEDFATYYCQQGSSLPLTFGQGTKVEIK
notes: humanized variant of 1D5
Take B4: the results for the “% Inhibition” value in assay [1], in assay [2] and in assay [3] were 50%, 51% and 51%, respectively. The dissociation constant (Kd) with huMICA*004 alpha 3-his is 3.42 nM; with huMICB*005 alpha 3-his, 8.37 nM; with huMICA*002 alpha 3-his, 4.09 nM; with huMICA*008 alpha 3-his it was 3.21 nM.

B5: 1D5v15 (antibody, IgG1, V domains shown)
VH: EIQLVQSGAEVKKPGASVKVSCKASGYAFTSQNIYWVRQAPGQGLEWIGYIEPYNVVPMYNPKFKGRATLTVDKSTSTAYLELSSLRSEDTAVYYCARSGSSNFDYWGQGTLVTVSS
VL: DIQMTQSPSSLSASVGDRVTITCSASSSISSHYLHWYQQKPGKAPKLLIYRTSNLASGVPSRFSGSGSGTDFTLTISSLQPEDFATYYCQQGSSLPLTFGQGTKVEIK
notes: humanized variant of 1D5
Turning to B5, the “% Inhibition” value in assay [1] amounted to 45%; in assay [2], 39%; in assay [3], 48%. In addition, the Kd in the assay with huMICA*004 alpha 3-his was found to be 0.81 nM; in the assay with huMICB*005 alpha 3-his it was 1.26 nM; with huMICA*002 alpha 3-his, 1.06 nM; in the assay with huMICA*008 alpha 3-his, 0.76 nM.

B6: 1D5v12 (antibody, IgG1, V domains shown)
VH: EVQLVQSGAEVKKPGASVKVSCKASGYAFTSQNIYWVRQAPGQGLEWIGYIEPYNVVPMYNPKFKGRVTITRDTSTSTAYLELSSLRSEDTAVYYCARSGSSNFDYWGQGTLVTVSS
VL: DIQLTQSPSSLSASVGDRVTITCSASSSISSHYLHWYQQKPGKSPKLLIYRTSNLASGVPSRFSGSGSGTDYTLTISSLQPEDFATYYCQQGSSLPLTFGQGTKVEIK
notes: humanized variant of 1D5
Turning to B6, the “% Inhibition” value in assay [1] amounted to 50%; in assay [2], 27%; in assay [3], 44%. For the same molecule, the Kd worked out at 3.91 nM in the assay with huMICA*004 alpha 3-his, 9.16 nM with huMICB*005 alpha 3-his, 4.64 nM in the assay with huMICA*002 alpha 3-his and 3.66 nM with huMICA*008 alpha 3-his.

B7: 1D5v20 (antibody, IgG1, V domains shown)
VH: EIQLVQSGAEVKKPGASVKVSCKASGYAFTSQNIYWVRQAPGQGLEWIGYIEPYNVVPMYNPKFKGRVTLTVDKSTSTAYLELSSLRSEDTAVYYCARSGSSNFDYWGQGTLVTVSS
VL: DIQLTQSPSSLSASVGDRVTITCSASSSISSHYLHWYQQKPGKSPKLLIYRTSNLASGVPSRFSGSGSGTDYTLTISSLQPEDFATYYCQQGSSLPLTFGQGTKVEIK
notes: humanized variant of 1D5
With B7, the figures for the “% Inhibition” value in assay [1], in assay [2] and in assay [3] were 46%, 39% and 56%, respectively. The dissociation constant (Kd) with huMICA*004 alpha 3-his was found to be 0.88 nM; with huMICB*005 alpha 3-his it was 1.57 nM; in the assay with huMICA*002 alpha 3-his, 1.14 nM; in the assay with huMICA*008 alpha 3-his, 0.83 nM.

B8: 1D5v17 (antibody, IgG1, V domains shown)
VH: EIQLVQSGAEVKKPGASVKVSCKASGYAFTSQNIYWVRQAPGQGLEWIGYIEPYNVVPMYNPKFKGRATLTVDKSTSTAYLELSSLRSEDTAVYYCARSGSSNFDYWGQGTLVTVSS
VL: DIQMTQSPSSLSASVGDRVTITCSASSSISSHYLHWYQQKPGKSPKLLIYRTSNLASGVPSRFSGSGSGTDYTLTISSLQPEDFATYYCQQGSSLPLTFGQGTKVEIK
notes: humanized variant of 1D5
As for B8, the “% Inhibition” value is 52% in assay [1], 50% in assay [2] and 68% in assay [3]. Besides, the Kd was 0.68 nM in the assay with huMICA*004 alpha 3-his, 1.01 nM with huMICB*005 alpha 3-his, 0.91 nM with huMICA*002 alpha 3-his and 0.64 nM in the assay with huMICA*008 alpha 3-his.

B9: 1D5v18 (antibody, IgG1, V domains shown)
VH: EIQLVQSGAEVKKPGASVKVSCKASGYAFTSQNIYWVRQAPGQGLEWIGYIEPYNVVPMYNPKFKGRATLTVDKSTSTAYLELSSLRSEDTAVYYCARSGSSNFDYWGQGTLVTVSS
VL: DIQLTQSPSSLSASVGDRVTITCSASSSISSHYLHWYQQKPGKSPKLLIYRTSNLASGVPSRFSGSGSGTDFTLTISSLQPEDFATYYCQQGSSLPLTFGQGTKVEIK
notes: humanized variant of 1D5
On to B9, for which the “% Inhibition” value in assay [1] amounted to 47%; in assay [2], 41%; in assay [3], 64%. Besides, the Kd is 0.79 nM with huMICA*004 alpha 3-his, 1.41 nM in the assay with huMICB*005 alpha 3-his, 1.04 nM with huMICA*002 alpha 3-his and 0.75 nM with huMICA*008 alpha 3-his.

B10: 1D5v10 (antibody, IgG1, V domains shown)
VH: EVQLVQSGAEVKKPGASVKVSCKASGYAFTSQNIYWVRQAPGQGLEWMGYIEPYNVVPMYNPKFKGRVTMTTDTSTSTAYMELRSLRSDDTAVYYCARSGSSNFDYWGQGTLVTVSS
VL: DIQLTQSPSSLSASVGDRVTITCSASSSISSHYLHWYQQKPGKSPKLLIYRTSNLASGVPSRFSGSGSGTDYTLTISSLQPEDFATYYCQQGSSLPLTFGQGTKVEIK
notes: humanized variant of 1D5
Regarding B10, the “% Inhibition” value in assay [1] came to 62%; in assay [2], 43%; in assay [3] it was 58%. In addition, the Kd with huMICA*004 alpha 3-his is 1.08 nM; in the assay with huMICB*005 alpha 3-his it was 1.98 nM; with huMICA*002 alpha 3-his, 1.44 nM; with huMICA*008 alpha 3-his, 1.05 nM.

B11: 1D5v19 (antibody, IgG1, V domains shown)
VH: EVQLVQSGAEVKKPGASVKVSCKASGYAFTSQNIYWVRQAPGQGLEWIGYIEPYNVVPMYNPKFKGRATLTVDKSTSTAYLELSSLRSEDTAVYYCARSGSSNFDYWGQGTLVTVSS
VL: DIQLTQSPSSLSASVGDRVTITCSASSSISSHYLHWYQQKPGKSPKLLIYRTSNLASGVPSRFSGSGSGTDYTLTISSLQPEDFATYYCQQGSSLPLTFGQGTKVEIK
notes: humanized variant of 1D5
On to B11, for which the “% Inhibition” value worked out at 44% in assay [1], 40% in assay [2] and 57% in assay [3]. Also, the Kd with huMICA*004 alpha 3-his amounted to 0.88 nM; with huMICB*005 alpha 3-his, 1.51 nM; in the assay with huMICA*002 alpha 3-his, 1.16 nM; in the assay with huMICA*008 alpha 3-his, 0.83 nM.

In general, % Inhibition refers to the share of the control response that was lost under treatment. A low value points to little suppression. As usually defined, the Kd is a measure of binding affinity in units of concentration. Higher therefore signals a looser complex.
